{"source": "patent US20200291444A1", "about": "“Macrocyclisation Tags” (Oxford University Innovation LTD, priority 2017, published 2020)", "key": {"[1]": {"test_system": "CC[C@H](C)[C@H](N)C(=O)N[C@@H](Cc1c[nH]c2ccccc12)C(=O)NCC(=O)N[C@H](C(=O)NCC(=O)N[C@@H](CS)C(=O)N[C@@H](CC(N)=O)C(=O)N1CCC[C@H]1C(=O)N[C@@H](Cc1c[nH]c2ccccc12)C(=O)N[C@H](C(=O)N[C@@H](C)C(=O)N[C@@H](CCC(=O)O)C(=O)N[C@@H](Cc1c[nH]cn1)C(=O)N[C@H](C(=O)N[C@@H](CC(=O)O)C(=O)N[C@@H](CCC(N)=O)C(=O)N[C@H](C(=O)N[C@@H](CC(C)C)C(=O)N[C@@H](C)C(=O)N[C@@H](CO)C(=O)NCC(=O)N[C@@H](CC(N)=O)C(=O)N[C@@H](CC(=O)O)C(=O)N[C@H](C(=O)N[C@@H](CS)C(=O)O)[C@@H](C)CC)[C@@H](C)O)C(C)C)[C@@H](C)O)[C@@H](C)CC", "assay": "GmPOPB kinetic assays (LC-MS)", "format": "biochemical, Galerina marginata", "conditions": "other: room temperature; pH 8.0", "method": "(§1) Comparison between distinct GmPOPB substrates was performed in 50 mM Tris pH 8.0, 50 mM NaCl, 10 mM DTT with varying concentrations of substrates at room temperature. All reactions were performed in duplicates. Reactions were started by adding GmPOPB (50 nM for GmAMA1_C6S, 1 μM for the 13mer and 14mer, and 20 nM for other substrates) to the assay mixture containing buffer and peptide. Reactions were quenched at several time points by adding 50 μL reaction mixture to 20 μL 6% TFA. Reactants were separated from products for quantification by injecting 50 μL of each quenched time point mix onto a ZORBAX SB-C18, 5 μm, 9.4×50 mm (Agilent) column connected to an Agilent LC-MS (G6130B Single Quad, Agilent Technologies). Reactants were separated from products using a gradient from H2O containing 0.1% TFA or 0.1% formic acid and 5% acetonitrile to 50% acetonitrile, at 1.5 ml/min for 8 min. Peaks with ultra violet (UV) absorbance at 220 and 280 nm were integrated, the area of peaks corresponding to reactant and products was used to calculate the percentage of product formed after a correction for differences in the extinction coefficient of each peptide was applied (ε280-25mer=11,000M-1 cm-1, ε220-25mer=46,000M-1 cm-1, ε280-cyclic=5500M-1 cm-1, ε220-cyclic=34,000M-1 cm-1, and ε280-tail=5500M-1 cm-1). The sum of product+substrate was assumed equal to the total initial amount of substrate, product converted from % to concentration. This value was divided by concentration of enzyme present to yield v/Et (min-1). When enzyme mutants and peptides containing alanine in the core region were tested for activity, higher concentrations 5 μM enzyme and 100 μM substrate were incubated for 1 and 18 h at room temperature. For progress curves with the 35mer substrate, measurements were triplicate and quantification relied on ion counts from mass spectrometry. […] Authentic macrocyclic peptide was quantified by UV absorbance. Data showing products formed after 1 and 16 h with truncated peptides were performed twice. […] Kinetic data were fitted to a Michaelis-Menten equation using GraphPad Prism, and values reported are average and standard error of the mean."}, "[2]": {"molecular_target": "T1, presegetalin B1", "T1 chain": "GVAWAFQAKDVENASAPV"}, "[3]": {"test_system": "25mer and 35mer substrates", "assay": "Activity of GmPOPB mutants with 25mer and 35mer substrates", "format": "biochemical, Galerina marginata", "conditions": "5 μM GmPOPB, 24 h (16 h elsewhere in the source)", "method": "as §1, with “Reactions were started by adding GmPOPB (50 nM for GmAMA1_C6S, 1 μM for the 13mer and 14mer, and 20 nM for other substrates) to the assay mixture containing buffer and peptide.” left out, “When enzyme mutants and peptides containing alanine in the core region were tested for activity, higher concentrations 5 μM enzyme and 100 μM substrate were incubated for 1 and 18 h at room temperature.” left out, “mean. […]” for “mean.”\nTo study other residues involved in hydrolysis and macrocyclisation, additional mutants H698N, R663A, R663Q, R663K, and W695Δ (deletion) were generated. […] H698N was insoluble and not evaluated. […]"}}, "data": [{"molecule": "GmPOPB (Galerina marginata CBS 339.88)", "values": [{"measurement": "Km", "setting": "[1]", "result": 50, "unit": "µM"}, {"measurement": "kcat", "setting": "[1]", "result": 0.3, "unit": "s⁻¹"}]}, {"molecule": "PCY1 (Saponaria vaccaria), wild type (protein) MATSGFSKPLHYPPVRRDETVVDDYFGVKVADPYRWLEDPNSEETKEFVDNQEKLANSVLEECELIDKFKQKIIDFVNFPRCGVPFRRANKYFHFYNSGLQAQNVFQMQDDLDGKPEVLYDPNLREGGRSGLSLYSVSEDAKYFAFGIHSGLTEWVTIKILKTEDRSYLPDTLEWVKFSPAIWTHDNKGFFYCPYPPLKEGEDHMTRSAVNQEARYHFLGTDQSEDILLWRDLENPAHHLKCQITDDGKYFLLYILDGCDDANKVYCLDLTKLPNGLESFRGREDSAPFMKLIDSFDASYTAIANDGSVFTFQTNKDAPRKKLVRVDLNNPSVWTDLVPESKKDLLESAHAVNENQLILRYLSDVKHVLEIRDLESGALQHRLPIDIGSVDGITARRRDSVVFFKFTSILTPGIVYQCDLKNDPTQLKIFRESVVPDFDRSEFEVKQVFVPSKDGTKIPIFIAARKGISLDGSHPCEMHGYGGFGINMMPTFSASRIVFLKHLGGVFCLANIRGGGEYGEEWHKAGFRDKKQNVFDDFISAAEYLISSGYTKARRVAIEGGSNGGLLVAACINQRPDLFGCAEANCGVMDMLRFHKFTLGYLWTGDYGCSDKEEEFKWLIKYSPIHNVRRPWEQPGNEETQYPATMILTADHDDRVVPLHSFKLLATMQHVLCTSLEDSPQKNPIIARIQRKAAHYGRATMTQIAEVADRYGFMAKALEAPWID", "values": [{"measurement": "Km (column head printed as 'Kin (µM)'), single injection kinetic ITC", "setting": "[2]", "result": 0.25, "unit": "µM"}, {"measurement": "Km (column head printed as 'Kin (µM)'), steady-state kinetics, LC/MS (UV280 nM)", "setting": "[2]", "result": 0.45, "unit": "µM"}]}, {"molecule": "S577A: GmPOPB catalytic triad mutant (protein) MSSVTWAPGNYPSTRRSDHVDTYQSASKGEVPVPDPYQWLEESTDEVDKWTTAQADLAQSYLDQNADIQKLAEKFRASRNYAKFSAPTLLDDGHWYWFYNRGLQSQSVLYRSKEPALPDFSKGDDNVGDVFFDPNVLAADGSAGMVLCKFSPDGKFFAYAVSHLGGDYSTIYVRSTSSPLSQASVAQGVDGRLSDEVKWFKFSTIIWTKDSKGFLYQRYPARERHEGTRSDRNAMMCYHKVGTTQEEDIIVYQDNEHPEWIYGADTSEDGKYLYLYQFKDTSKKNLLWVAELDEDGVKSGIHWRKVVNEYAADYNIITNHGSLVYIKTNLNAPQYKVITIDLSKDEPEIRDFIPEEKDAKLAQVNCANEEYFVAIYKRNVKDEIYLYSKAGVQLTRLAPDFVGAASIANRQKQTHFFLTLSGFNTPGTIARYDFTAPETQRFSILRTTKVNELDPDDFESTQVWYESKDGTKIPMFIVRHKSTKFDGTAAAIQYGYGGFATSADPFFSPIILTFLQTYGAIFAVPSIRGGGEFGEEWHKGGRRETKVNTFDDFIAAAQFLVKNKYAAPGKVAINGAANGGLLVMGSIVRAPEGTFGAAVPEGGVADLLKFHKFTGGQAWISEYGNPSIPEEFDYIYPLSPVHNVRTDKVMPATLITVNIGDGRVVPMHSFKFIATLQHNVPQNPHPLLIKIDKSWLGHGMGKPTDKNVKDAADKWGFIARALGLELKTVE", "values": [{"measurement": "activity of GmPOPB mutant (in words)", "setting": "[3]", "result": "inactive"}]}, {"molecule": "D661A: GmPOPB catalytic triad mutant (protein, UniProt H2E7Q8 1-730, looked up, variant D661A) Dual function …: MSSVTWAPGNYPSTRRSDHVDTYQSASKGEVPVPDPYQWLEESTDEVDKWTTAQADLAQSYLDQNADIQKLAEKFRASRNYAKFSAPTLLDDGHWYWFYNRGLQSQSVLYRSKEPALPDFSKGDDNVGDVFFDPNVLAADGSAGMVLCKFSPDGKFFAYAVSHLGGDYSTIYVRSTSSPLSQASVAQGVDGRLSDEVKWFKFSTIIWTKDSKGFLYQRYPARERHEGTRSDRNAMMCYHKVGTTQEEDIIVYQDNEHPEWIYGADTSEDGKYLYLYQFKDTSKKNLLWVAELDEDGVKSGIHWRKVVNEYAADYNIITNHGSLVYIKTNLNAPQYKVITIDLSKDEPEIRDFIPEEKDAKLAQVNCANEEYFVAIYKRNVKDEIYLYSKAGVQLTRLAPDFVGAASIANRQKQTHFFLTLSGFNTPGTIARYDFTAPETQRFSILRTTKVNELDPDDFESTQVWYESKDGTKIPMFIVRHKSTKFDGTAAAIQYGYGGFATSADPFFSPIILTFLQTYGAIFAVPSIRGGGEFGEEWHKGGRRETKVNTFDDFIAAAQFLVKNKYAAPGKVAINGASNGGLLVMGSIVRAPEGTFGAAVPEGGVADLLKFHKFTGGQAWISEYGNPSIPEEFDYIYPLSPVHNVRTDKVMPATLITVNIGAGRVVPMHSFKFIATLQHNVPQNPHPLLIKIDKSWLGHGMGKPTDKNVKDAADKWGFIARALGLELKTVE", "values": [{"measurement": "activity of GmPOPB mutant (in words)", "setting": "[3]", "result": "inactive"}]}, {"molecule": "H698A: GmPOPB catalytic triad mutant (protein, UniProt H2E7Q8 1-730, looked up, variant H698A) Dual function …: MSSVTWAPGNYPSTRRSDHVDTYQSASKGEVPVPDPYQWLEESTDEVDKWTTAQADLAQSYLDQNADIQKLAEKFRASRNYAKFSAPTLLDDGHWYWFYNRGLQSQSVLYRSKEPALPDFSKGDDNVGDVFFDPNVLAADGSAGMVLCKFSPDGKFFAYAVSHLGGDYSTIYVRSTSSPLSQASVAQGVDGRLSDEVKWFKFSTIIWTKDSKGFLYQRYPARERHEGTRSDRNAMMCYHKVGTTQEEDIIVYQDNEHPEWIYGADTSEDGKYLYLYQFKDTSKKNLLWVAELDEDGVKSGIHWRKVVNEYAADYNIITNHGSLVYIKTNLNAPQYKVITIDLSKDEPEIRDFIPEEKDAKLAQVNCANEEYFVAIYKRNVKDEIYLYSKAGVQLTRLAPDFVGAASIANRQKQTHFFLTLSGFNTPGTIARYDFTAPETQRFSILRTTKVNELDPDDFESTQVWYESKDGTKIPMFIVRHKSTKFDGTAAAIQYGYGGFATSADPFFSPIILTFLQTYGAIFAVPSIRGGGEFGEEWHKGGRRETKVNTFDDFIAAAQFLVKNKYAAPGKVAINGASNGGLLVMGSIVRAPEGTFGAAVPEGGVADLLKFHKFTGGQAWISEYGNPSIPEEFDYIYPLSPVHNVRTDKVMPATLITVNIGDGRVVPMHSFKFIATLQHNVPQNPHPLLIKIDKSWLGAGMGKPTDKNVKDAADKWGFIARALGLELKTVE", "values": [{"measurement": "activity of GmPOPB mutant (in words)", "setting": "[3]", "result": "inactive"}]}]}
